Data as given in article PMC8833744, “Strategic Decoy Peptides Interfere with MSI1/AGO2 Interaction to Elicit Tumor Suppression Effects” (Cancers, 2022).

Target: T1, recombinant His-tagged AGO2 (UniProt Q9UKV8 1-859)
T1 construct: AGO2 (argonaute 2); Detected on the array by an HRP-conjugated 6xHis antibody; amine-coupled to a CM5 chip in the SPR; also called His-AGO2; AGO2 recombinant protein; source: recombinant, purified
Assay: SPR; Biacore T200; His-AGO2 immobilised on a CM5 chip by amine coupling (~7000 RU); peptides 20 to 1280 nM in HBS-P (10 mM HEPES, 150 mM NaCl, 0.005% T20, pH 7.4), 30 µL/min; Langmuir 1:1 model
Conditions: both partners purified

T1 sequence (Q9UKV8 whole entry): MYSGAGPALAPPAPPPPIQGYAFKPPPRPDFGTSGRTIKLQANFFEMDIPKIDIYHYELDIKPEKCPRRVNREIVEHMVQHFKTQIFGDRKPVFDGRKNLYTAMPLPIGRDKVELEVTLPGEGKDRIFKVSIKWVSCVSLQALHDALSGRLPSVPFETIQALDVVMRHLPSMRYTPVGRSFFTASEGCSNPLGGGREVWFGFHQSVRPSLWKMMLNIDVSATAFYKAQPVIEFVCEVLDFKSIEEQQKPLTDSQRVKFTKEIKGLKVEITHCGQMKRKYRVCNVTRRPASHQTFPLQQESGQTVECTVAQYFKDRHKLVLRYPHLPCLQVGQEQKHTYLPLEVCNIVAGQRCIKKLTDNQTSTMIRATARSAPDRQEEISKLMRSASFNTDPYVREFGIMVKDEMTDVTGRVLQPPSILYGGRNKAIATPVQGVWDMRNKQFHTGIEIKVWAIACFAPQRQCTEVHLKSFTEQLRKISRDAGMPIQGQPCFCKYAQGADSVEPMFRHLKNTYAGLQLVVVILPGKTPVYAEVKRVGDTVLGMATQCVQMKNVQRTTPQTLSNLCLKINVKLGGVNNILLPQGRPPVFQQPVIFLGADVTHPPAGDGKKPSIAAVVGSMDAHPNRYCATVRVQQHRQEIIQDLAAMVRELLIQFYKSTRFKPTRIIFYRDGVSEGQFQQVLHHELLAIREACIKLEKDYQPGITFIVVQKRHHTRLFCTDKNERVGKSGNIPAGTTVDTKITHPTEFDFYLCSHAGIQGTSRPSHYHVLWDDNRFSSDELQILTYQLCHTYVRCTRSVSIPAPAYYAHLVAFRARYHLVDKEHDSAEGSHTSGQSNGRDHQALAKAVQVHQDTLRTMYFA

| Binder | Kd [nM] |
| --- | --- |
| HSLGGPLIATAFTNG [Pep#26 (decoy peptide as used in the SPR)] | 674 |
| YQFPEFRVERTPLPS [Pep#11 (decoy peptide as used in the SPR)] | 515 |
